Measured values published in a protein production outcome set (Wang et al. 2014).

Assay: label from the status in PepcDB records
In the case of “MNELLLITFSPLVAGVLAWLVRIRGVRESLGILGAIVPLAFLIKLYPSLDHPIRATISLGGFELGFSMSHLNWVFSMIAAVVGLSAVFGMASTAKDSYEWLFSLMSLTGALGIFMAQDLVTFFIFWEVMTFSSFMMVLKFNRAASLKYLILSIIGAYSMLVAIGIIYAKTGTFTFADISAFFRKEAMLAMLGGKSTFSRFDMALIYLLFLMAFGVKAGMFPLHVWAPDAYSETDQSYTAIFSGVLSKTGVYGFILLYVLMYGKLLIDLGQFKGTPLFGYIIAFLGGLTIIIGGVLAALQEDIRKLFAYSSISQVGYILVGLGIGTSLGIEAAIYHAISHALFKGLFFLVVATIIYRTGKTEFKDFGGLAEKMPFTFAMAFIAILSLAGIPPLVGFASKWLIFEAVISQKLPILGGMLFFGSAIGFVYLIRFTYAVWFGQRPSDIEDTKDAPLPLAIGMGILGTLNVVFGVAPGLVAKELNAIFGNPVIGGNIWELDLGFGRYNALLVAIWLVIGVLIAAILYFLGASTRKVPVTDTYQSGNPVTMEYNLTIRRNFFLPLKETMAFWLRISFDKLYKDTWKAIEDFAETARNYIYNGNVQAYAWYLAIILLILAAMGV”, the protein production is reported as “failed”. With “MNEPLHLYVHIPFCLKKCRYCSFVSRSDAPLAIDDYASLVAREMEMRVAAANPLPLSPATTLYLGGGTPSLLSPAALERIIDAAARSYGLGPGAEITLEANPGTVTFQRLADFRSAGVNRLSLGVQSFDDGMLVLLGRLHTARQAREAVAATRRAGFDNIGIDLIHSLPGQTPDQWREQLACAVALNPDHVSAYGLTVEEGTPFAAMEERGELVLPDEEQSALMFEATTDVLVSAGFEHYEIANFARPHRRSRHNQVYWLRRNYLGFGAGAHSFLRAPAFGVRWKNTDDLELYRDTLAAAELPGEERTVLSRADAMAEFFFLGLRLLDGVREEDFVREFGDTMENVYGREMERLCSAGLLMREGGRLKLSRRGVILANRVFASFL” the protein production was “failed”. With “MNEQIDPFYEAKQEVDISVNKLQSLYNNWNNIPDKSSISAREKYNLIKEEIKYLNEDLNDLDNSVNIVKKNSYKFNISSQEIEERTQSLRIIRNLLNEITNNINNNVLSYNNNTNNDYNSVILKRQDNDLEELAESAERLHHAAITINTELKDQQKLLDELENEMDISSNEYKMDIYSIYIFVYFEFS” the protein production was “failed”. With “MNESAGGRTPVPPAAWVFGLSTLIPFFIASGLFCYGPVAIRKSALLGLLAYSAAMVSYFGGVRTGLEIENPSPRWSVLGISLLFPLAGFGLLLGGLKFEAAWQLSGFLLVFLLQWVWDVTDHEGPSWRPRMRTLMTAGAAISLAFALEQALHM” the protein production was “failed”. For “MNEYFFPKLTAVEALAPYRLRTTWSTGEVLEVDVGDILRKIPDLAPILDPEAFARVHIAEWEGSVEWFDTEFGRDNVYAWAKEQAGEVSHEMFGDWMHRNNLSLTTAAEALGISRRMVSYYRTAHKIIPRTIWLACLGWEATRPETKTLPRTLPAAYAKGVSASLS”, the protein production was “not failed”. In the case of “MNEYQIKFKEDCYYAENNAGKVIGELLYSKIKQGKVISINQVRVDPLFRNRGIAGKLLKKAVDDAVKNGQLIKAVCSFSKKAFLQNKNYQKYEYKEN”, the protein production is reported as “failed”. With “MNFDSYIFDFDGTLIDTTTCHVKATQSAFKRLNLDEPTEQAILHTYHLNLYNNFKALASHELSFYQIEKLIDEYNHCFSNDEIHQSKEYTGISEVLKFLHNQKKKIFVVSNKETLTTQKYLDYLGLSRFITDSLGVCIKNEDKLLCETIQNLIQKHHLMIGKTVYIGDTAQDIKSANQAHVQTCAVTWGAQSAHELLHEDPHYVVNDPEEFLTIL” the protein production was “failed”. With “MNFEGIIIAAISFFIIGIFHPIVIKLEYYLTKNIWPLFLILGIIFIIISLFQKQTVAAAIMGIIGATCIWSIKEIFEQEKRVQKGWFPKNPRKK” the protein production was “failed”. In the case of “MNFFKILLMELRAIVSHKGVLLILIGAPLIYGLLYPLPYLRDIVTQQKIALVDEDNSFLSRQLAFMAQSSNELEIAFFSPSMLEAKKLLKEEKIYGILHIPSHFEANIHKQVPVTIDFYANSNYFLIYGALANAVVESINALNDEIRFKRNAQIEEAELGTDGIKIRPIALYNPSEGYLNYALSSVFIFILHQVMLIASSMFTSSRRLELALLDRKQIALRLCTRLLVFMGAFSVFILWYFGALFSFYGIERHGSALMVFLNSLIFMLATLSLGSFLGAWIKNEAHTTQIVLISSLPLIFMMGFVWPFESLPSYLQVFVQIVPAYHGISLLGRLNQMHAEFIDVSFHFYALIAIFIASFIGSVFKLSSLKKACENA”, the protein production is reported as “failed”. For “MNFFTSPFSGIPLDQQVTNPNIIVGKHSYYSGYYHGHSFDDCVRYLHPERDDVDKLVIGSFCSIGSGAVFMMAGNQGHRSDWISTFPFFYQDNDNFADARDGFTRSGDTIIGHDVWIGTEAMIMPGVKIGHGAIIASRSVVTKDVAPYEVVGSNPAKHIKFRFSDVEIAMLLEMAWWNWPESWLKESMQSLCSSDIEGLYLNWQSKART”, the protein production was “not failed”. For “MNFGEAVSSFFRNYVNFSGRASRSEFWYSYLFIIIVGVILVIVDTIVKNEIISSIWNLAALLPTLAMTTRRLHDINRSGWHQLLAWFIPVGSIALIIWYCKKSDDTVTLSEIERVFR”, the protein production was “failed”. In the case of “MNFPHMIPYNAPYYFVLLIAALLPMILTLAIKGTRWPWYQTLVTLVFLYISFGGEFWQQGVALIVYVIYQTLLTWGYAAYRKNKNAGWVFYLAVFLAILPLVWVKVSPFMTGKTTLLGFLGISYLTFKAVQVVMDLRDGVMKEYHPFRYIQFLLFFPTISSGPIDRYRRFEKDLKNPPSAEKYLDFLEKGIFYLFLGFLYKFIISHYLGGVFLPHVEKMALAQGGLSWWTVGYMYNYSLYLFFDFAGYSLLAVGTSYLMGYDTPMNFNKPFLSWNIKEFWNRWHMTLSFWFRDYIYMRLMFFLMKKKVFKSRIVTSNIGYFALFLIMGIWHGLTWFYIAYGLYHATLICVTDAWLRFKKKHKDKIPSNKFTHAFAVFLTFQAVCVSFLIFSGFLDKLWFK”, the protein production is reported as “not failed”. With “MNFPIDEKLIREKQNELHIKDLGMASIRDLVALVTNLEKATGTKFCRMEMGVPGLPAPQIGIETEIQKLREGVASIYPNLDGLPELKQEASRFAKLFVNIDIPARACVPTVGSMQGCFVSFLVANRTHKNREYGTLFIDPGFNLNKLQCRILGQKFESFDLFEYRGEKLREKLESYLQTGQFCSIIYSNPNNPTWQCMTDEELRIIGELATKHDVIVIEDLAYFGMDFRKDYSHPGEPLYQPSVANYTDNYILALSSSKAFSYAGQRIGVLMISGKLYEREYPDLEESFGRLRFGEALSSSALYALSSGATHSAQWGMAAMLKACNDGEYNFRDSVIEYGRKARIMKKMFLDNGFNIVYDKDGNEPLADGFYFTVGYKGMDSSKLIEKFVRYGMCAITLKTTGSKRNEAMRICTSLLPESQFPDLEKRLQMLNAEG” the protein production was “not failed”. In the case of “MNFVTLTSDEFNAFTTKHFSHYTQSAIHYNHRVDLKGDVHLVGVKDDNGQVIAGCLLTEARTLKFFKYFYTHRGPVMDYTNQSLVAFFFKALTSYLKKHNCLYVLVDPYLIENLRNADGEIVKSYDNRAFVRTMDKLGYKHQGFPVGYDSMSQIRWLSVLDLKDKTEDQLLKEMDYQTRRNIKKTYDIGVKTKTLTIDETQTFFDLFHMAEEKHGFKFRELPYFEEMQKLYDDHAMLKLAYIDLNEYLKTLQLKQQQLTAELSGVEEALEESPNSKKNKTKRTQLEQQLNSNKRKIDNTIEQIEQDGAVLNLASALFIYNEHEVYYLSSGSNPKYNAYMGAYHLQWEMIKFAKAHHIDRYNFYGITGDFSESSEDYGVQQFKKGFNAHVEEYIGDFIKPIKPLLYKVQTYLNHKRR”, the protein production is reported as “failed”. In the case of “MNGAVDLVIRFLLFAMLHSIAALPGVQQRIGNMFPRGFRFYRAAYNLAALVTFGWVMAAWPLSPVIYLVPGSASLAFHAVQAFTLLQMIRCVSRTGMADFLGIRHPSREDAAHELVTTGCYGTVRHPLYTLAMVFCLFNPLMTVKWLLFTLMAGGYFVMGAVVEERRLEREFGDAYRSYRRQVPMLIPRRRKPVAKE”, the protein production is reported as “failed”. In the case of “MNGDSKPYPLIVQQVMLFTTHPAHGVKAGMAKALHMIHAGRKVLVFIALLVSASLAMADVAIPPLKARVTDLTGTLSANEATQLEQKLAAFEARKGSQIAVLIVSTTQPETIEQYSIRVVDAWKLGRKGIDDGVLLLVAKQDRTVRVEVGYGLEGVLPDAVAKRITDEIIVPEFRQGRFAAGINAGVDRIIGVIEGEPLPPPPARSARGGDSSAAADILVNNIIFVFILLFIAAKVFQSIFGRFLGATLLSTAAAIIVWLVFASIFLALIAAAFAFFISLFGHAGSGIYRGGRGWPGGFGGYGGWGGRGGPGGFGGGGGFGGGGGGFGGGGASGRW”, the protein production is reported as “failed”.
